The term stoichiometry N denotes a count of units in the complex or per binding partner.

This assay has as its target PRC2:EZH1 (EZH1, EED, SUZ12, RBAP48, AEBP2 and JARID2) (UniProt Q92800). Nature of the assay: SEC-MALS; TSKgel G4000SWxl, 20 mM Tris-HCl pH 7.5, 300 mM NaCl, 1 mM DTT, 0.5 ml/min; complexes at 1.25 mg/ml, 30 μl injected. For orientation: In gel filtration, larger molecules generally elute earlier.

In the case of “PRC2:EZH1 (EZH1, EED, SUZ12, RBAP48, AEBP2 and JARID2) (from UniProt Q92800 1-747; Q15022 1-739; O75530 1-441; Q09028 1-425; Q6ZN18 209-503; Q92833 1-1246) (complex)”, the stoichiometry N stood at 2.
